The values that follow come from patent US20110263454A1, “Methods of Identifying Functional Characteristics of Promoters, Transcription Modifying Proteins and Transcription Modulating Agents” (Salk Institute for Biological Studies, priority 2008, published 2011).

One assay concerns RevErba promoter. Briefly: NHR-promoter luciferase screen, RevErba (RVRa) promoter. Type of assay: cell-based. Also on record: key to mRevErba promoter reporter activity / Normalized Luc. act., normalized to control: luciferase activity normalized to lacZ and to control (no NHR/ligand). The method, boiled down:
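CV-1 cells co-transfected with NHR (pcDNA3.1, C-terminal V5H6 tag) as homodimer or RXR heterodimer, RevErbα promoter–luciferase reporter and LacZ transfection control; ligand added where applicable. Luciferase normalized to LacZ and to no-NHR/no-ligand control.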

For another assay, the system named is hCYP3A4 promoter. Briefly: NHR-promoter luciferase screen, hCYP3A4 promoter. Type of assay: cell-based, human. The method, boiled down: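 CV-1 cells co-transfected with NHR homodimer or NHR/RXR heterodimer (pcDNA3.1, C-terminal V5H6 tag), promoter-luciferase construct and LacZ transfection control. Orphan receptors screened without ligand. Luciferase normalized to LacZ and to no-NHR/no-ligand control.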

In another assay the test system is hIRF7 promoter. Nature of the assay: NHR-promoter luciferase screen, hIRF7 promoter. Type of assay: cell-based, human. In short, it runs like this: (§1)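 CV-1 cells were co-transfected with 50 ng NHR (homodimer or NHR/RXR heterodimer), 100 ng promoter-luciferase construct and 50 ng LacZ. Luciferase was normalized to LacZ and to a no-NHR/no-ligand control.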
A further assay has as its system hG6PD promoter. Briefly: NHR-promoter luciferase screen, hG6PD promoter. The assay is classed as cell-based, human. The method, boiled down:
as §1

The next assay deals with mUCP2 promoter. Briefly: NHR-promoter luciferase screen, mUCP2 promoter. The assay is classed as cell-based, mouse. In short, it runs like this:
as §1

Another assay deals with hTNFa promoter. Nature of the assay: NHR-promoter luciferase screen, hTNFa promoter. The assay is classed as cell-based, human. In short, it runs like this:
as §1

Setting [1] is: RVRa promoter, HR component without or with ligand.
Where [2] appears, read: transcription factor +/- ligand, control = 1.00.
Where [3] appears, read: CYP3A4 promoter, HR/ligand component.
Setting [4] is: TNFa promoter, HR component without or with ligand.

B1: CTF3: COUP-TF3 (NR2F6), cDNA driver (protein, UniProt P10588 1-404, looked up)
Nuclear receptor subfamily 2 …: MAMVTGGWGGPGGDTNGVDKAGGYPRAAEDDSASPPGAASDAEPGDEERPGLQVDCVVCGDKSSGKHYGVFTCEGCKSFFKRSIRRNLSYTCRSNRDCQIDQHHRNQCQYCRLKKCFRVGMRKEAVQRGRIPHSLPGAVAASSGSPPGSALAAVASGGDLFPGQPVSELIAQLLRAEPYPAAAGRFGAGGGAAGAVLGIDNVCELAARLLFSTVEWARHAPFFPELPVADQVALLRLSWSELFVLNAAQAALPLHTAPLLAAAGLHAAPMAAERAVAFMDQVRAFQEQVDKLGRLQVDSAEYGCLKAIALFTPDACGLSDPAHVESLQEKAQVALTEYVRAQYPSQPQRFGRLLLRLPALRAVPASLISQLFFMRLVGKTPIETLIRDMLLSGSTFNWPYGSGQ
On to B1, for which the “Luc. act., normalized to lacZ” value is 19.1 in the assay on RevErba promoter (setting [1]); 6.1 with hCYP3A4 promoter (setting [3]); 25.5 in the assay on hIRF7 promoter (IRF7 promoter reporter, hormone receptor (HR) without or with its ligand); 32.5 with hG6PD promoter (G6PD promoter reporter, co-transfected HR, without or with its ligand); 54.4 in the assay with mUCP2 promoter (mUCP2 promoter reporter, co-transfected HR, with or without its ligand); 932.4 in the assay with hTNFa promoter (setting [4]). In addition, the “Normalized Luc. act., normalized to control” value with RevErba promoter (setting [1]) turned out to be 0.7; in the assay with hCYP3A4 promoter (setting [3]), 1.4; in the assay with hIRF7 promoter (IRF7 promoter reporter, HR without or with its ligand, relative to control) it was 1.0; in the assay with hG6PD promoter (G6PD promoter reporter, co-transfected HR, without or with its ligand, relative to control) it was 0.9; with mUCP2 promoter (mUCP2 promoter reporter, co-transfected HR, with or without its ligand, relative to control), 0.5; with hTNFa promoter (setting [4]), 0.9. The “negative reciprocal of normalized Luc. act. (fold repression; Table 33)” value in the assay with RevErba promoter (RVRa promoter, given only where activity is below control) is recorded as −1.467. In addition, the “normalized Luc. act. on a logarithmic scale (column without head, Table 33)” value with RevErba promoter (RVRa promoter, log10 of activity normalized to control) is reported as −0.17. Further, the “mRevErba promoter reporter activity” value in the assay on RevErba promoter (setting [2]) stood at 0.68. The “hCYP3A4 promoter reporter activity” value with hCYP3A4 promoter (setting [2]) was 1.37. Besides, the “hIRF7 promoter reporter activity” value in the assay on hIRF7 promoter (setting [2]) is on record as 0.97. In addition, the “luciferase activity normalized to lacZ activity and to a control, hG6PD” value in the assay with hG6PD promoter (hG6PD promoter-luciferase, CV-1 cells, NHR +/- ligand, control = 1.00) turned out to be 0.87. The “luciferase activity normalized to lacZ activity and to a control, mUCP2” value in the assay with mUCP2 promoter (mUCP2 promoter-luciferase, CV-1 cells, NHR +/- ligand, control = 1.00) is reported as 0.49. Moreover, the “hTNFa promoter reporter activity” value with hTNFa promoter (setting [2]) is listed as 0.95.
